# The DeepSol protein solubility set
# Test: soluble on expression in E. coli; label from the status in PepcDB or PDB records
row,Sequence,soluble on expression in E. coli
1,MKMYADERREHIYSYIKSHKRATVKQLSDYLSVTEATVRSDLRRLESENKLTRTHGGAKVTENIGSKFNFSYRLTQKHGEKYKISKSALKKIKPQQCIMIDASSTTYELAKLLAETTMELTIITNGLENAVLLKENPHLTVLVVGGFVSQDSNAITGNIDSQILEMYHIDYFFLSANGFTLENGLTDFSLPEVQLKKQMVQESENVIALIDKSKFGVSSTLSFAKISDINEVITDEKPEHKWLKHVPFSVTVAQLEHHHHHH,soluble
2,MPPFKRTKIVATLGPATDDKEVIRALAEAGADVFRLNFSHGAPEDHRRRVGWVREVAEELGRTLAVLQDLQGPKIRVGRFREGQVLLRPGQRFVLTAEPVEGDEHRVSVSYKGLPEDVSPGQILLLDDGRIRLKVLEVRSPEILTEVEVGGVLSNNKGINIPGADLSIPALSEKDIQDLALGAELGVDWVAVSFVRTRDDLLLARHYLSRYGSKARLMAKIEKPSAVARFEEILEEADGIMVARGDLGVEMPLEEVPIVQKRLILRCIAAGKPVITATQMLESMVQNPSPTRAEASDVANAIFDGTDAVMLSAETAAGAYPVEAVAMMARIAKAVESSPEFLQKLNVLRPAPTPTTQDAIAQAADDVVEAVGARAIVVFTATGGSARRIARTRPQVPILALTPNPEVRNQLALVWGVYPHLAPDPQDTDDMVRIALREVKALGLAQVGDRVVIAAGVPFGVRGTTNLIRVERVG,soluble
3,MEEDQEEPPSSSTSSESPEVVLKAPKAPTRRRKNSKKDRRQDMEVDDGEKESTAQYCKGFYDALRVMQTTNKYEFTGGAVSSPVLPVLQTAAFSPITPASASDMHTIVMSLLGNTPITSGPSIAPLSSPTLLPLVTSGDLDDLSMKILASSAIPGPPIISSSNSPDSSTTAVTTSQITAFQPLLNNFVSSTTASTSRPDKLNLTPPQQSAEIYAFNGVNSDDSDGGLDSRSASRCG,not soluble
4,MCSSPTTLFLLFALVSTSYALLGVGRTQSVAVSGRVICNGQPASGVKLKLYEKESTFDVLLEEATSDANGQFRLSGSKTEISTIDPKLNIYHKCNYNGLCYKKIGITIPDNYVSSGKTPSKTYDIGTLNLANQYTGQTTDCIN,not soluble
5,MGSDKIHHHHHHMNTDARMGAGVSLKAEHYDQALACNLEGLWFEVHPENYMVGGPRLAWLNRIAERHPVSLHGVALSLAADAAPDQDHLQRLRALCDQIEPVLVYYHLAWSTWQGHYHPDLLPFPRSNEALQRIAENIQRCQEVLGRRISIENPSHYLQLQGHEWDEIDFLGELTRRTGCGLLLDINNVYVSAHNLGFSATAYLDRFPAQAITEVHLAGHSDDDQGSLLIDSHDAQVAEPVWALYRKLVSRVGPRPTLIERDDKLPPFTELLAERSIAQSIMTCPGVLP,not soluble
6,AMDFPQQLEACVKQANQALSRFIAPLPFQNTPVVETMQYGALLGGKRLRPFLVYATGHMFGVSTNTLDAPAAAVECIHAYSLIHDDLPAMDDDDLRRGLPTCHVKFGEANAILAGDALQTLAFSILSDADMPEVSDRDRISMISELASASGIAGMCGGQALDLDAEGKHVPLDALERIHRHKTGALIRAAVRLGALSAGDKGRRALPVLDKYAESIGLAFQVQDDILDVVGDTATLGKRQGADQQLGKSTYPALLGLEQARKKARDLIDDARQSLKQLAEQSLDTSALEALADYIIQRNK,soluble
7,MKKYLILVGSPPACGKTYVSGELAKRLNNPVYLDKDTVIPLSKMVFKAANQPYNRDSDFFKEYVRDAEYIVTFDLAFESLNYNNCVIVNAPFSKEFRDKGYMNNLKNKLKKYNAELIPVWVSCDIDVCHKRMIKRNSDRDTWKLNNWDEYVKGQNYTTPDLEGLFVVDNSSNEDFEAGLKKLLEKVLLEHHHHHH,soluble
8,MGSDKIHHHHHHMTISQQAVLAATAITKTFGAHVALHTIDIAFRPGEVHALLGENGAGKSTLIKILTGAYTPDAGTVLVDGAPMSFSTPQQAQAAGIGTVYQEVNLLTNMTVADNLFIGRQPRRFGLVDHRTMEREARRILSGYGLDIDVRAELATFSVAVQQIIAIARAVELSGKVLILDEPTASLDRSEVLKLFEIVRGLKARGLAIVFITHFLDQVFELCDHATVLRNGKLVGSQPIDTLNRTTLVRMMLGKDLSLHHDAVAGIEAEVGESLMQFTGYGLDGKVQPFTLTIHKGEVIGVAGLLGSGRTEMARLMFGIDSADKGELTLNGASFKIRSPRQAIDLGFGFCPEDRKADGIFGDLSVRENIIIAMQAKLGWLRTLSYDEQMEIAGQFIEALDIRTASAELPIKLLSGGNQQKAILARWLATDPRFLILDEPTRGIDVGAHAEIVRMISRLREDGLALIVISSELDEVVSYSSRIVVMRDRAMVAELHGADIAPDVIVQTIAAQSNTPAQSEGAFS,not soluble
